This is an account of results in patent US20260250381A1.

T1: human TREM2 (human) (UniProt Q9NZC2)
T1 sequence (looked up): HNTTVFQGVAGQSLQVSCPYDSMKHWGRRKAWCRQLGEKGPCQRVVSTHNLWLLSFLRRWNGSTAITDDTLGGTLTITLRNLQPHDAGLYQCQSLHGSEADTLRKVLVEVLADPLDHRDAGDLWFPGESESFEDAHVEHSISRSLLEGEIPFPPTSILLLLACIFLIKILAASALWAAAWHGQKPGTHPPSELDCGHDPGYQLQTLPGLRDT

B1: 6E7 variant V70 (antibody, V domains shown)
VH: EVQLVQSGAEVKKPGESLKISCKGSGYSFTSYWIAWVRQMPGKGLEWMGIIYPGDSDTRYSPSFQGQVTISADKSISTAYLQWSSLKASDTAMYFCARQRTFYYDSSDYFDYWGQGTLVTVSS
VL: DIQMTQSPSSVSASVGDRVTITCRASQGISSWLAWYQQKPGKAPKLLIYAAGSLQNGVPSRFSGSGSGTDFTLTISSLQPEDFATYFCQQADSFPRTFGQGTKLEIK
B2: 6E7 variant V80 (antibody, V domains shown)
VH: B1 VH with T101N
VL: B1 VL with G52S
B3: 6E7 variant V71 (antibody, V domains shown)
VH: B1 VH
VL: B1 VL with G52S, F94E
B4: 6E7 variant V82 (antibody, V domains shown)
VH: B1 VH
VL: B1 VL with A51G, G52S
B5: 6E7 variant V90 (antibody, V domains shown)
VH: B1 VH with Y32E
VL: B1 VL with S31R, G52S
B6: 6E7 variant V81 (antibody, V domains shown)
VH: B1 VH
VL: B1 VL with W32L, G52S
B7: 6E7 variant V94 (antibody, V domains shown)
VH: B1 VH
VL: B1 VL with G52A
B8: 6E7 variant V92 (antibody, V domains shown)
VH: B1 VH with Y103H
VL: B1 VL with G52S
B9: 6E7 variant V78 (antibody, V domains shown)
VH: B1 VH with S28R
VL: B1 VL with G52S
B10: 6E7 variant V93 (antibody, V domains shown)
VH: B1 VH
VL: B1 VL with S31G, G52S
B11: 6E7 variant V91 (antibody, V domains shown)
VH: B1 VH with G54D
VL: B1 VL with G52S
B12: 6E7 variant V79 (antibody, V domains shown)
VH: B1 VH with R59N
VL: B1 VL with G52S
B13: 6E7 variant V83 (antibody, V domains shown)
VH: B1 VH
VL: B1 VL with G52S, D92V

Changes are numbered by the printed parent chain.

The first assay addresses T1, human TREM2 (human). Put plainly: 1st screen, 110 nM Ab.
Consider B1, for which the Binding Signal (fold over 6E7 parental antibody) amounted to 0.79 fold.
As to B2, the Binding Signal (fold over 6E7 parental antibody) was 0.59 fold.
For the molecule B3, the Binding Signal (fold over 6E7 parental antibody) was determined as 0.37 fold.
Turning to B4, the Binding Signal (fold over 6E7 parental antibody) was determined as 0.3 fold.
B5: the Binding Signal (fold over 6E7 parental antibody) came out at 0.33 fold.
The same measure, in the same setting: with B6 the figure was 0.17 fold; with B7, 0.31 fold; with B8, 0.22 fold.
For the molecule B9, the Binding Signal (fold over 6E7 parental antibody) was determined as 0.86 fold.
As to B10, the Binding Signal (fold over 6E7 parental antibody) was 0.35 fold.
For B11, the Binding Signal (fold over 6E7 parental antibody) came to 0.25 fold.
As for B12, the Binding Signal (fold over 6E7 parental antibody) was 0.7 fold.
Regarding B13, the Binding Signal (fold over 6E7 parental antibody) turned out to be 0.2 fold.

The next assay has as its target T1, human TREM2 (human). Put plainly: 2nd screen, 100 nM Ab.
Consider B1, for which the Binding Signal (fold over 6E7 parental antibody) was 0.84 fold.
On to B2, for which the Binding Signal (fold over 6E7 parental antibody) came to 0.5 fold.
Turning to B3, the Binding Signal (fold over 6E7 parental antibody) was 0.48 fold.
As for B4, the Binding Signal (fold over 6E7 parental antibody) stood at 0.79 fold.
For B5, the Binding Signal (fold over 6E7 parental antibody) turned out to be 0.36 fold.
On to B6, for which the Binding Signal (fold over 6E7 parental antibody) turned out to be 0.23 fold.
Still for that read-out and setting: the same measure for B7: 0.87 fold; for B8: 0.65 fold; for B9: 1.11 fold.
In the case of B10, the Binding Signal (fold over 6E7 parental antibody) was determined as 1.05 fold.
Take B11: the Binding Signal (fold over 6E7 parental antibody) stood at 0.61 fold.
Take B12: the Binding Signal (fold over 6E7 parental antibody) was found to be 0.52 fold.
For the molecule B13, the Binding Signal (fold over 6E7 parental antibody) worked out at 0.29 fold.
